# Assay results taken from patent US20190353661A1.
# B1: Human IgE mAb 7G12 (antibody, V domains shown)
# VH: QVHLVQSGVDVKKPGASVKLSCKTSGYTFTNYGITWVRQAPGQGLEWMGWISTYDGATNYSQNLQGRIIMTTDTSKRTAYLQMRSLRSDDTAVYYCARGRDSPDHWGQGTLVTVSS
# VL: DIQMTQSPSTLSASVGDRVTITCRASQSINRWLAWYQQKPGTAPKLLIFKASTLDSGVPARFSGTGSETEFSLTINSLQPDDFATYYCQQYDHFPHTFGPGTKLDIK
# B2: Human IgE mAb 2G1 (antibody)
# VH: EFQLVESGGGLIQPGGSLRLSCAGSGFTVTTNYMAWVRQAPGKGLEWVSTIYSAGSTFYADSVKGRFTISGDNSKNTLYLQMGSLRAEDTAVYYCARENPAQDAFDIWAKDTMVTVSSASF
# VL: EFSYELTQPLSVSVALGQTARITCGGNNIGSKNVHWYQQKPGLAPVLVIYRDSNRPSGIPARFSGSSSGNTATLTISSAQAGDEADYYCHVWDTSTVVFGGGTKLTVLSLPKAAPSVTLFPPSSEELQANKATLVCLISDFYPGAVTVAWKADSSPVKAGVETTTPSKQSNNKYAASSYLSLTPEQWKSHKSYSCQVTHEGSTVEKTVAPTECS
# B3: Human IgE mAb 1A5 (antibody, V domains shown)
# VH: EVQLVESGGGVVQPGRSLRLSCAGSGFTFSTYVMHWVRQAPGKGLEWVAVISYDGTNKYYADSMKGRFTISRDNSKNTLYLQLNRLRAEDTAVYYCAKTMDDSSGYYCPDYW
# VL: SSELTQDPAVSVALGQTVKITCQGDSLRNYFANWYQQKPGQAPVLVIYGQNNRPSGIPDRFSGSTSGNTGSLTITGAQAEDEADYYCNSRDSSGNHLYVFG
# B4: Human IgE mAb 11H12 (antibody, V domains shown)
# VH: QVQLVESGGDLVTPGGSLRLSCAASGFAFSGYYMSWIRQAPGKGLEWISYINSNGLTISYADSVKGRFTVSRDNAKNSLFLQMSSLRAEDTAIYYCARDWGTTLVTFDLWGQGTLVTVSS
# VL: QPVLTQSSSASASMGSSAKLTCTLSSGHRGYNIAWLQQHPGKAPLYLTNLEGSDSYKNDRLTVSSSGADRYLTISNLQPEDEATYYCFTWDSDSRVFGGGTHLTVL
# Legend:
# Helminth lysate [1] = test: ELISA on helminth lysate; (+++) >100 x background
# Helminth lysate [2] = test: direct fluorescent ELISA on helminth lysate
# [3] = biological target: T1, Dust mite allergen Der p 2 (dust mite (Dermatophagoides pteronyssinus)) (UniProt P49278); test: direct ELISA, Der p2 coated at 5 µg/mL, two-fold dilutions of IgE, anti-human IgE secondary, OD 450 nm
# T1 sequence (looked up): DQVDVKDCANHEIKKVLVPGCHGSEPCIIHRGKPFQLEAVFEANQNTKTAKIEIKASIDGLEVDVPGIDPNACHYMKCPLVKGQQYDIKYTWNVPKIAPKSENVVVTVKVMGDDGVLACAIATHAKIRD
# Helminth lysate [4] = test: ELISA on helminth lysate; (++) 10-100 x background
Binder,fold over background (Helminth lysate [1]) [fold],RFU (Helminth lysate [2]) [RFU],EC50 [3] [ng/mL],fold over background (Helminth lysate [4]) [fold],fold over background (times background) (Helminth lysate [2])
B1,> 100,40000,,,
B2,,,7.1,,
B3,,,,10 to 100,
B4,,1000,,10 to 100,10
